According to paper PMC5095173, “Disulfide-activated protein kinase G Iα regulates cardiac diastolic relaxation and fine-tunes the Frank–Starling response” (Nature Communications, 2016):

B1: Micall1 pS307 (protein, UniProt D3ZQL6 1-855, looked up)
MICAL-like protein 1: MAGPRGALLAWCRRQCEGYRGVDIRDLSSSFRDGLAFCAILHRHRPDLLDFQSLSKENVFENNRLAFEVAEKELGIPALLDPNDMVSMSVPDCLSIMTYVSQYYNHFTSSGQAAASPPKPGKDPAAPSPTSTSPAVQPGEEAQGDDLSPDSLSEQGKPQPPSSACAACGQRVHLVQRYLAEGRLYHRHCFRCRQCSSTLVPGSYSSGPEEGTFVCAERCTRLGLGGRSGTRPLSLQKQQPAAAAEAKDGEDSDLSKSVVVVAAEADGLQASSEVQPHTLTKPPLPSKPQDLASPPVSRPTPAPRKASESSALTPPTPRPRSSLQQDGMVEQSVSGDLVNGRLQELPVPKPRGTPKLSERMTAPRKDPPWITLVQTEPKKKPAPLPPSSGPGPLSQASRQVENGGLEEKTQKSPAAEPEPKPYNPFEEEEEEEEASVPAVPSPAPAPPETTPKSLHPWYNITPTSSPKTKKRPAPKAPSASPLVLHASRLSHSEPPSATPSPALSVESLSSESSSHTANTEPSEPPAVPKSSSDPAVHVPGTPGTSANSVTPSAHSSLSSSGELGQPSGEQMPQARTRGSPGTHSTKPFSGATPTPFLLAGDQKSPAPPMGSSSPQMLIKSSCKENPFNRKPSPSTSPTVRKATKGAKPVRPPAPGHGFPLIKRKVQADQYIPEEDIYGEMDSIERQLDALEHSGVLLEEKLRGGANEGSEDDMLVDWFKLIHEKHLLVRRESELIYVFKQQNLEQRQADVEFELRCLLNKPEKDWTDDDRAREKVLMQELMTLIEQRDAIVNCLDEDRQREEEEDKMLETMIKKKDFQREAESDSKKKGKFKTMKVLKLLGNKRDAKSKAPTGKS
modifications: phosphorylated at S307
B2: Map4 pT899 (protein, UniProt Q5M7W5 2-1057, looked up)
Microtubule-associated …: ADLSLVDALTEPPPEIEGEIKRDFMAALEAEPYDDIVGETVEKTEFIPLLDGDEKSGNSESKRKPCVDTSQVEDIPSSKPTLLANGDHGVEGNNTTGSPTDFLVENVDYEDYQNSQSWPEDASFCFQPQQVLDTNQADPFNVHHDDGLADLLFVSSGPTNASAFIEENNPLEDSYGVLPCDSFAPTAVVSQEWSVGAPDSPHSEPCVSPEVTIETAQPATELSKAVDLESVKEQLPAKALEMMAGQTTDAVPSKESEGSPDTDAAPGPDTDVTLTKDIEESSSPDVISANVTQPFTESDMFLTQEMELLIGTEAAQVKDTMSSVEPDISSAKNTAPPTEEETVPGKDMTFPKEAETALPIEMDLAPPEDVALPKETELELAPAAGTAPLSETEVALAKDEEPSTGIPAAQEMLLSSETEVVLPSDSIMTLTKEVTVPLEAAGPLVSDMTAILETEMTLGGGTATPTETKLGKVKDMAPLPESEVALGKDVVTLPETKVTEFNNVTPLSEEEVASIKDVSPSPETETAKNADLHSGTELTLDNSMTPPSDPALPLETKVATVQIKDKETVQTQEELSEDSQLESVQLEGQSAVPPCTISPEPVKAADQKSTLPVDEGSPLEKLEQKETSGSQPPELCSGVSRQEEGKAAVGLTGNDIATPPNKELPPSPEKKAKPLATTQPAKTSTSKAKIQPTSLPKQPAPTTSGGLNKKPMSLASGSVPAAPHKRPAAATATARPSTLPARDLKPKPITETKVAEKRTSPSKPSSAPALRPGPKTTPTISKATSPSTLVSTGSSSRSPSTTLPKRPTTTKTEGKPADVKRMTAKSATADLSRSKTTSASSVKRNTTPTGATPPAGMASTRVKPMSAPCRSSVALSVDKKPTSTKPSSSAPRVSRLATTVSAPDLKSVRSKVGSTENMKHQPGGGRVQIQNKKVDISKVSSKCGSKANIKHKPGGGDVKIESQKLNFKEKAQAKVGSLDNVGHLPAGGTVKTEGGGSEAPPCPGPPAGEEPAIPEAAPDAGAPTSASGLSGHTTLSGGGDQREPQTLDSQIQETSI
modifications: phosphorylated at T899
B3: Murc pS257 (protein, UniProt B1PRL5 1-362, looked up)
Caveolae-associated protein 4: MEHNGSASNAGKIHQNRLSSVTEDEDQDAALTIVTVLDRVATVVDSVQASQKRIEERHREMGNAIKSVQIDLLKLSQSHSNTGYVVNKLFEKTRKVSAHIKDVKARVEKQQVRVTKVETKQEEIMKKNKFRVVIFQEDVPCPASLSVVKDRSLPENEEEAEEVFDPPIDLSSDEEYYVEESRSARLRKSGKEHIDHIKKAFSKENMQKTRQNFDKKVSGIRTRIVTPERRERLRQSGERLRQSGERLRQSGERFKKSISNATPSKEAFKIRSLRKPKDPKAEGQEVDRGMGVDIISGSLALGPIHEFHSDGFSETEKEVTKVGYIPQEGGDPPTPEPLKVTFKPQVRVEDDESLLLELKQSS
modifications: phosphorylated at S257
B4: Mylk3 pS444 (protein, UniProt E9PT87 1-786, looked up)
Myosin light chain kinase 3: MSGVSEEDPEGLGPQGLPALGGACLVTVDKKLNVLTEKVDRLLHFQEDVTEKLQCVCQGMDHLEQGLHRLEASQELGLAGPGSTSPAAAQAAWPEVLELVRAVRQEGAQHGARLEALFKMVVAVDRAITLVGSTIQNSKVDDFILQGTVPWRKGSLADGPEENKEQAEVAGVKPKHVLNTGSVQAATSRALWEESQKQDTPVGTVEGLPLIIDTSLKGADLTQAGASLRQGVEALDPGQEPPPTEAESRLPALASEDTGTTLELSVAIDRISEVLTSLRMSQSAGEGTSSSKPDCSEPGPQPLGPLTTDSDIHSDEGLPRISVRMREMTTPEELFETQGGSPIGSAEAPGPGTVLEDQIPKGARPFPPLPKRSCNNGGASAEEATGPGAEPIRGPSLVTRDWRDEPVGTTDLQQGRDPGAVSPEPGKDHAAQGPGRTEAGRRVSSAAEAAIVVLDDSAAPPAPFEHRVVSIKDTLISTSYTVSQHEVLGGGRFGQVHRCTERSTGLALAAKIIKVKNIKDREDVKNEINIMNQLSHVNLIQLYDAFESKNSFTLIMEYVDGGELFDRITDEKYHLTELDVVLFTRQICEGVHYLHQHYILHLDLKPENILCVSQTGHQIKIIDFGLARRYKPREKLKVNFGTPEFLAPEVVNYEFVSFPTDMWSVGVITYMLLSGLSPFLGETDAETMNFIVNCSWDFDADTFKGLSEEAKDFVSRLLVKEKSCRMSATQCLKHEWLNHLIAKASGSNVRLRSQLLLQKYMAQRKWKKHFHVVTAVNRLRKFPTCP
modifications: phosphorylated at S444
B5: Serbp1 pS391 (protein, UniProt Q9CY58 1-407, looked up)
SERPINE1 mRNA-binding protein …: MPGHLQEGFGCVVTNRFDQLFDDESDPFEVLKAAENKKKEAGGGGVGGPGAKSAAQAAAQTNSNAAGKQLRKESQKDRKNPLPPSVGVADKKEETQPPVALKKEGIRRVGRRPDQQLQGDGKLIDRRAERRPPRERRFEKPLEEKGEGGEFSVDRPIIERPIRGRGGLGRGRGGRGRGMGRGDGFDSRGKREFDRHSGSDRSSFSHYSGLKHEDKRGGSGSHNWGTVKDELTESPKYIQKQISYNCSDLDQSNVTEETPEGEEHPVADTENKENEVEEVKEEGPKEMTLDEWKAIQNKDRAKVEFNIRKPNEGADGQWKKGFVLHKSKSEEAHAEDSVMDHHFRKPANDITSQLEINFGDLGRPGRGGRGGRGGRGRGGRPNRGSRTDKSSASAPDVDDPEAFPALA
modifications: phosphorylated S391
B6: Ptrf pT304 (protein, UniProt P85125 1-392, looked up)
Caveolae-associated protein 1: MEDVTLHIVERPYSGYPDASSEGPEPTPGEARATEEPSGTGSDELIKSDQVNGVLVLSLLDKIIGAVDQIQLTQAQLEERQAEMEGAVQSIQGELSKLGKAHATTSNTVSKLLEKVRKVSVNVKTVRGSLERQAGQIKKLEVNEAELLRRRNFKVMIYQDEVKLPAKLSVSKSLKESEALPEKEGDELGEGERPEEDAAAIELSSDEAVEVEEVIEESRAERIKRSGLRRVDDFKKAFSKEKMEKTKVRTRENLEKTRLKTKENLEKTRHTLEKRMNKLGTRLVPVERREKLKTSRDKLRKSFTPDHVVYARSKTAVYKVPPFTFHVKKIREGEVEVLKATEMVEVGPDDDEVGAERGAETDLLRGSSPDVHTLLEITEESDAVLVDKSDSD
modifications: phosphorylated at T304
B7: Ptrf pS302 (protein, UniProt P85125 1-392, looked up)
Caveolae-associated protein 1: MEDVTLHIVERPYSGYPDASSEGPEPTPGEARATEEPSGTGSDELIKSDQVNGVLVLSLLDKIIGAVDQIQLTQAQLEERQAEMEGAVQSIQGELSKLGKAHATTSNTVSKLLEKVRKVSVNVKTVRGSLERQAGQIKKLEVNEAELLRRRNFKVMIYQDEVKLPAKLSVSKSLKESEALPEKEGDELGEGERPEEDAAAIELSSDEAVEVEEVIEESRAERIKRSGLRRVDDFKKAFSKEKMEKTKVRTRENLEKTRLKTKENLEKTRHTLEKRMNKLGTRLVPVERREKLKTSRDKLRKSFTPDHVVYARSKTAVYKVPPFTFHVKKIREGEVEVLKATEMVEVGPDDDEVGAERGAETDLLRGSSPDVHTLLEITEESDAVLVDKSDSD
modifications: phosphorylated at S302
B8: Ptrf pS169 (protein, UniProt P85125 1-392, looked up)
Caveolae-associated protein 1: MEDVTLHIVERPYSGYPDASSEGPEPTPGEARATEEPSGTGSDELIKSDQVNGVLVLSLLDKIIGAVDQIQLTQAQLEERQAEMEGAVQSIQGELSKLGKAHATTSNTVSKLLEKVRKVSVNVKTVRGSLERQAGQIKKLEVNEAELLRRRNFKVMIYQDEVKLPAKLSVSKSLKESEALPEKEGDELGEGERPEEDAAAIELSSDEAVEVEEVIEESRAERIKRSGLRRVDDFKKAFSKEKMEKTKVRTRENLEKTRLKTKENLEKTRHTLEKRMNKLGTRLVPVERREKLKTSRDKLRKSFTPDHVVYARSKTAVYKVPPFTFHVKKIREGEVEVLKATEMVEVGPDDDEVGAERGAETDLLRGSSPDVHTLLEITEESDAVLVDKSDSD
modifications: phosphorylated at S169
B9: Ptrf pS171 (protein, UniProt P85125 1-392, looked up)
Caveolae-associated protein 1: MEDVTLHIVERPYSGYPDASSEGPEPTPGEARATEEPSGTGSDELIKSDQVNGVLVLSLLDKIIGAVDQIQLTQAQLEERQAEMEGAVQSIQGELSKLGKAHATTSNTVSKLLEKVRKVSVNVKTVRGSLERQAGQIKKLEVNEAELLRRRNFKVMIYQDEVKLPAKLSVSKSLKESEALPEKEGDELGEGERPEEDAAAIELSSDEAVEVEEVIEESRAERIKRSGLRRVDDFKKAFSKEKMEKTKVRTRENLEKTRLKTKENLEKTRHTLEKRMNKLGTRLVPVERREKLKTSRDKLRKSFTPDHVVYARSKTAVYKVPPFTFHVKKIREGEVEVLKATEMVEVGPDDDEVGAERGAETDLLRGSSPDVHTLLEITEESDAVLVDKSDSD
modifications: phosphorylated at S171

Experiments:
[1] = test system: PKGIα (analogue-sensitive M438G), disulfide-activated; test: Chemical genetic phosphoproteomic screen, disulfide-activated PKGIα M438G versus unactivated control; assay type: biochemical, human PKGIα; substrates in rat heart homogenate; conditions: control = PKGIα C42S/M438G
Method in brief: (§1)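 Analogue-sensitive human PKGIα mutants (M438G, air-oxidized to disulfide dimer; C42S/M438G, cGMP-activated), expressed in 293-F cells, thiophosphorylate substrates in rat left-ventricle lysate (20 mg ml) using N6-alkylated ATPγS. Thiophosphopeptides are recovered by covalent capture and identified with sites by LC–MS/MS, each compared against an unactivated control.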

[2] = test system: PKGIα (analogue-sensitive C42S/M438G), cGMP-activated; test: Chemical genetic phosphoproteomic screen, cGMP-activated PKGIα C42S/M438G versus unactivated control; assay type: biochemical, human PKGIα; substrates in rat heart homogenate; conditions: control = PKGIα C42S/M438G
Method in brief: as §1

Molecule | log2 fold change Disulfide vs Control [1] | log2 fold change cGMP vs Control [2]
B1 | 1.417 | 2.266
B2 | 1.73 | 3.693
B3 | 0.9013 | 1.807
B4 | 0.1624 | 3.077
B5 | 3.516 | 6.458
B6 | 1.3031 | 3.045
B7 | 1.32 | 3.161
B8 | 2.165 | 4.006
B9 | -0.2713 | 3.564
